Patent US20220267458A1 (Innovent, published 2022)
Positions count from the first letter of the chain named.

T1: human GITR-His (human, UniProt Q9Y5U5 26-161)
T1 construct: Bought from Acro biosystems; also called GITR-His (Acro biosystems); antigen GITR-His
T1 sequence: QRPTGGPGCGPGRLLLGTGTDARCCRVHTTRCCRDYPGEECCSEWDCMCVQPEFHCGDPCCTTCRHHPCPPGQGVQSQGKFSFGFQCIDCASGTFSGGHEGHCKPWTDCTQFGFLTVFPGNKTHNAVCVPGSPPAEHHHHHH

T2: human GITR overexpressed on CHO cells (CHO-GITR) (human, UniProt Q9Y5U5 26-241)
T2 construct: whole, on cells; also called cell surface GITR protein; antigen expressed on the cell surface
T2 sequence (looked up): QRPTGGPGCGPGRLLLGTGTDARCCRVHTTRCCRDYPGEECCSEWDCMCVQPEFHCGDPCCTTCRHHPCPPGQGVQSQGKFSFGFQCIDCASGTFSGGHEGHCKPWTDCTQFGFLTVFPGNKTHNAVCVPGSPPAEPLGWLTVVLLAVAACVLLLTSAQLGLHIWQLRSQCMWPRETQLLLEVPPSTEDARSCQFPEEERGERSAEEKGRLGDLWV

B1: Nb-22 (VHH)
VHH: QVQLQESGGGSVQAGGSLRLSCAASGYTFTTAYMGWFRQAPGKEREGVAAIDSDGRTEYADAVKGRFTISKDNAKNTLYLQMNSLKPEDTAMYYCAADKDDWLLLHGRSLFPSAFAYWGQGTQVTVSS
notes: Tested as crude extract from E. coli (osmotic shock)
B2: Nb-01 (VHH)
VHH: QVQLQESGGGLVQPGGSLRLSCTASGLTFDDYAMGWFRQAPGKGREGVSLITWSGSSTYYADSVKGRFTVSRDTATNTLVLQMNSLKPEDTAMYYCAADPRSGGYYSSPPPPAVYRYLRFWGQGTQVTVSS
notes: as for B1
B3: Nb-21 (VHH)
VHH: QVQLQESGGGSVQAGGSLRLSCRTSGYTNNLKSMAWFRQAPGKEREAVASIHNNGGPTYDYYAESVKGRFAISQDNAKNTLYLQMSSAKPEDTAVYYCAADNRFLGSGSWRLPSLYNYWGQGTQVTVSS
notes: as for B1
B4: Nb-14 (VHH)
VHH: QVQLQEFGGGSVQAGGSLRLSCVASGFTFSNYCMGWFRQDPGKEREAVARIFVDGSTRYADAVKGRFTISKDNAKNTLYVQINSLKPEDTAMYYCTTPFPWTLCVDGPGAYKYWGQGTQVTVSS
notes: as for B1
B5: Nb-13 (VHH)
VHH: QVQLQESGGGSVQAGGSLRLSCTASSNTGRMGWFRQAPGKEREGVTAVDNFGRTNYAKYVKGRFTISKDNAKNTLYLQMNSLKPEDTAMYYCAADPWGRGAALTPNEYIYWGQGTQVTVSS
notes: as for B1
B6: Nb-08 (VHH)
VHH: QVQLQESGGGSVQAGGSLRLSCAASGYTSSRKYIGWFRQAPGKQREWVAGIDTGAGGTCTIASVQGRFTISQDVAKNTLYLQIDSLKPEDTAVYYCAADWVRGGFCSGDADFRYWGQGTQVTVSS
notes: as for B1
B7: Nb-02 (VHH)
VHH: QVQLQESGGGSVQAGGSLRLSCAASRDTYTRYFMGWFRQTPGKEGEGVAVLLPGGDYTFYADSVKGRFTITQDSAKNTVYLQMNSLKPEDTAMYYCAADVTVGSRWSQASNYNYWGQGTQVTVSS
notes: as for B1
B8: Nb-12 (VHH)
VHH: B7 VHH with G45P, D56A
notes: as for B1
B9: Nb-07 (VHH)
VHH: QVQLQESGGGLVQAGGSLKLSCTVSGFAFGSSHMSWVRRAPGKGLEWVSTIHSGGGFGDYANSVQGRFTISRDVAKNTLYLQMNSLKPEDTAIYYCALATDWRKPPGQGTQVTVSS
notes: as for B1
B10: Nb-10 (VHH)
VHH: B9 VHH with A14P, K19R, T23A, V24A
notes: as for B1
B11: Nb-20 (VHH)
VHH: QVQLQESGGGSVQAGGSLRLSCASSGYSRTSRWMAWFRQAPGKEREGVAAIYTGGSSTLYANSMADRVTISQDNAKNTVYLRMNNLKPEDTAMYYCAADKLAGDFWLVDRWRAWGQGTQVTVSS
notes: as for B1
B12: Nb-15 (VHH)
VHH: QVQLQESGGGSVQAGGSLRLSCVVFGNIFRNYCMAWFRQAPGKEREGVVVIYTGGGSTYYADSVKGRFTISQDNAKNTVYLQMNSLKHEDTAMYYCAADQTTRYSSDYVNVGPCDMDSWGKGTQVTVSS
notes: as for B1
B13: Nb-18 (VHH)
VHH: QVQLQESGGGSVQTGGSLRLSCAASGLTSTTKYMGWFRQAPGKEREGVAGIYISSGATYYDDSVKGRFTISQDNAKNTVYLHINSLEPDDTAMYYCAASVLSVFRPLSSNQYHYWGQGTQVTVSS
notes: as for B1
B14: Nb-03 (VHH)
VHH: QVQLQESGGGSVQAGGSLRLSCAASGYTYSGYCMGWFRQAPGKEHEGVASIVSGLGRPYYADSVKGRFTISQDNAKNTVYLQMNSLKPEDTAMYYCAAEWATKLCSEIPATEWDYWGQGTQVTVSS
notes: as for B1
B15: Nb-04 (VHH)
VHH: QVQLQESGGGSVQAGGSLRLSCTASGFTVDDSGMGWYRQAPGNECELVSTISSDGSTYYADSVKGRFTISQDNAKNTVYLQMNSLKPEDTAVYYCAAPRVGVGWVRPCDYEYNYWGQGTQVTVSS
notes: as for B1
B16: Nb-11 (VHH)
VHH: B15 VHH with A14T, V29F, D31A, S32A, G33D, T50I
notes: as for B1
B17: Nb-17 (VHH)
VHH: QVQLQESGGGSAQAGGSLRLSCAASRYTSSSNAMGWFRQAPGKQREWVAGSDTGAGITCNAASVKGRFTISQDVAKNTVYLQMNSLKPEDTAVYYCAADWFRGAFCSGDADFRYWGQGTQVTVSS
notes: as for B1
B18: Nb-19 (VHH)
VHH: QVQLQESGGGSVQAGGSLRLSCAASGFTYSNYCMAWFRQAPGKEREGVAAIDSDGSTSYADSVKGRFTISQDNAKNTLYLQMNSLKPEDTAMYYCAAGNKKPYQLCNTDSRRYYHWGQGTQVTVSS
notes: as for B1
B19: Nb-05 (VHH)
VHH: QVQLQESGGGLVQPGGSLRLSCAASGFTFSNKVMSWVRQAPGKGFEWVSSIARGGDWTTYADSVEGRFTISRDNAKNTLYLQLNSLKTEDTAMYYCAQAENWKTPPGQGTQVTVSS
notes: as for B1
B20: Nb-06 (VHH)
VHH: QVQLQESGGGSVQAGGSLRLSCAASGYAYTRNCMGWFRQAPGKEREEVATINLGGGSTYYADSVKGRFAISQDNAKNTVYLQMNNLKPEDTAMYYCAAIAQYGGSLCSNFGWYNLWGQGTQVTVSS
notes: as for B1
B21: Nb-09 (VHH)
VHH: QVQLQESGGGLVQPGGSLRLSCGASGFTFSSTAMWWFRQAPGKGLEWVSSITSDVSGTYYADSVQGRFTISRDNGKNTVYLQMNSLRSEDTALYYCATSCGFSGGTWSCKYRGQGTQVTVSS
notes: as for B1
B22: Nb-16 (VHH)
VHH: QVQLQESGGGSVQAGGSLRLSCAASGYTYNKYSWGWFRQAPGKEREGVAGIDSDGSTSYADSVKGRFTISKDNTKNTLYLQMNSLKPEDTAMYYCAASDWVSAIQALGVLAVRPYEYWGQGTQVTVSS
notes: as for B1
B23: hcIgG-02 (antibody, V domains shown)
VH: B7 VHH
notes: also called heavy-chain antibody of Nb-02
B24: hcIgG-04 (antibody, V domains shown)
VH: B15 VHH
notes: also called heavy-chain antibody of Nb-04

Target: T1, human GITR-His
Experiment: PE-ELISA, sample OD against reference OD
Procedure: (§1) (2) crude antibodies were obtained by a conventional osmotic shock method, and the crude antibodies were transferred to an enzyme-labeled plate (Nunc) coated with the antigen GITR-His overnight, and incubated at room temperature for 1 h;

Row | Ratio (+/-) | Binder
1 | 10 | B1
2 | 6.23 | B2
3 | 7.55 | B3
4 | 4 | B4
5 | 3.29 | B5
6 | 23 | B6
7 | 20.7 | B7
8 | 4.53 | B8
9 | 32.6 | B9
10 | 29.9 | B10
11 | 12.2 | B11
12 | 5.04 | B12
13 | 9.8 | B13
14 | 11.7 | B14
15 | 22 | B15
16 | 7.78 | B16
17 | 15.1 | B17
18 | 18.5 | B18
19 | 21.5 | B19
20 | 3.31 | B20
21 | 23.1 | B21
22 | 20.7 | B22

Target: T1, human GITR-His
Experiment: PE-ELISA, crude nanobody on coated GITR-His, anti-HA detection
Procedure: as §1
(3) unbound antibodies were washed off with PBST, then mouse anti-HA tag antibody (SinoBiological) was added, and placed at room temperature for 1 h;

Row | Sample OD (+) | Binder
23 | 0.606 OD (405 nm) | B1
24 | 0.467 OD (405 nm) | B2
25 | 0.522 OD (405 nm) | B3
26 | 0.46 OD (405 nm) | B4
27 | 0.263 OD (405 nm) | B5
28 | 1.71 OD (405 nm) | B6
29 | 1.43 OD (405 nm) | B7
30 | 0.444 OD (405 nm) | B8
31 | 2.35 OD (405 nm) | B9
32 | 2.27 OD (405 nm) | B10
33 | 1.41 OD (405 nm) | B11
34 | 1.25 OD (405 nm) | B12
35 | 1.01 OD (405 nm) | B13
36 | 0.786 OD (405 nm) | B14
37 | 1.63 OD (405 nm) | B15
38 | 0.552 OD (405 nm) | B16
39 | 1.04 OD (405 nm) | B17
40 | 1.32 OD (405 nm) | B18
41 | 1.41 OD (405 nm) | B19
42 | 0.314 OD (405 nm) | B20
43 | 1.45 OD (405 nm) | B21
44 | 1.67 OD (405 nm) | B22

Target: T1, human GITR-His
Experiment: ForteBio BLI, antibody on AHQ tip, human GITR-His 100 nM in solution, 1:1 model
Procedure: (2) Experimental procedure: 100 μl of SD buffer and antibodies (hcIgG-02, hcIgG-03, hcIgG-04, hcIgG-07, hcIgG-09, hcIgG-10, hcIgG-16 and hcIgG-20, control antibody), GITR-His (Acro biosystems) were added to a 96-well half-volume black polystyrene microplate. The plate was arranged according to the positions of the samples, the position of the sensor was selected, and the operation procedures were set as: Baseline, Loading ˜1 nm, Baseline, Association and Dissociation, each running for a time depending on the binding and dissociation rates of the sample, at a rotation speed of 400 rpm and a temperature of 30° C.
(3) A 1:1 binding model was adopted for kinetic analysis.

Row | Kd [nM] | koff [s⁻¹] | kon [M⁻¹ s⁻¹] | Binder
45 | 6.33 | 0.00214 | 338000 | B23
46 | 7.92 | 0.00202 | 256000 | B24

Target: T2, human GITR overexpressed on CHO cells …
Experiment: flow cytometry on CHO-GITR cells, PE anti-human Fc detection, MFI; direct binding titration, the table row is labelled IC50, nM is taken from the concentration axis
Procedure: (1) Cell preparation: The pCHO1.0 vector (Invitrogen) carrying human GITR cDNA cloned to a multiple cloning site (MCS) was transfected into Chinese hamster ovary cancer cells (CHO) (Invitrogen) to produce human GITR-overexpressing CHO cells (CHO-GITR), the CHO cells (CHO-GITR) overexpressing human GITR on the surface thereof were counted, and diluted to 1×10⁶ cells/mL, and added to a U-bottom 96-well plate with 100 μL/well.
(1) Detection: The cell suspension was centrifuged at 400 g for 5 min to remove the cell medium. Serial dilutions of the sample were added to a U-shaped plate, and then the cells were resuspended and added to the plate with 100 μL/well. The plate was put onto the ice to stand for 30 min The cell suspension was centrifuged at 400 g for 5 min, and the supernatant was discarded. The cells were washed once with PBS, and then centrifuged at 400 g for 5 min to remove PBS. 100 μL of the solution of PE-conjugated anti-human Fc antibody (Jackson Immuno Research) diluted at a ratio of 1:200 was added to each well, and the cells were incubated in dark on the ice for 30 min The cell suspension was centrifuged at 400 g for 5 min, and the supernatant was discarded. The cells were washed once with PBS. The cells were resuspended with 100 μL of PBS.

Row | IC50 [nM] | Binder
47 | 41.2 | B23
